Measured values published in patent publication US20230330033A1.

Molecular target: CD40 (UniProt P25942)
Test: cell-based or functional assay

Question: Which EC50 of CD40 activation, bioluminescent reporter CHO cells does the source give for LOB7/6 (antibody) here?
Answer: -1.47 log(µM)
